B1: YTH24.5-B1: rat IgG2b anti-CD45 antibody YTH24.5 conjugated to cleavable PBD drug-linker B1 (drawing 43) (conjugate)
heavy: QVNLLQSGAALVKPGASVKLSCKASSYTFTDYYIHWVKQSHGKTLEWIGYINPKSGFTNYNEKFRRKATLTVDKSTNTAYMDISRLTSEDSATYYCTRRTGVIPMDAWGQGASVTVSSAQTTAPSVYPLAPGCGDTTSSTVTLGCLVKGYFPEPVTVTWNSGALSSDVHTFPAVLQSGLYTLTSSVTSSTWPSQTVTCNVAHPASSTKVDKKVERRNGGIGHKCPTCPTCHKCPVPELLGGPSVFIFPPKPKDILLISQNAKVTCVVVDVSEEEPDVQFSWFVNNVEVHTAQTQPREEQYNSTFRVVSALPIQHQDWMSGKEFKCKVNNKALPSPIEKTISKPKGLVRKPQVYVMGPPTEQLTEQTVSLTCLTSGFLPNDIGVEWTSNGHIEKNYKNTEPVMDSDGSFFMYSKLNVERSRWDSRAPFVCSVVHEGLHNHHVEKSISRPPGK
light: DVVMTQTPVSLSVSLGGQVSISCRSSQSFVSSDGNTYLNWYLQKPGQSPQLLIYKVSNRLSGVPDRFSGSGSGTDFTLKISRVEHDDLGVYYCGQASKIPLTFGSGTKLEIKRADAAPTVSIFPPSMEQLTSGGATVVCFVNNFYPRDISVKWKIDGSEQRDGVLDSVTDQDSKDSTYSMSSTLSLTKVEYERHNLYTCEVVHKTSSSPVVKSFNRNEC
B2: YTH54.12-B1: rat IgG2b anti-CD45 antibody YTH54.12 conjugated to cleavable PBD drug-linker B1 (drawing 43) (conjugate)
heavy: EVQLVESGGGLVQPGGSMKLSCAASGFTFSDYYMAWVRQAPKKGLEWVASMSFAGSSTYYGDSVKGRFTISRDNAKTTLYLQMNSLRSEDTATYYCARMYTTDYYLYWYFDFWGPGTMVTVSSAQTTAPSVYPLAPGCGDTTSSTVTLGCLVKGYFPEPVTVTWNSGALSSDVHTFPAVLQSGLYTLTSSVTSSTWPSQTVTCNVAHPASSTKVDKKVERRNGGIGHKCPTCPTCHKCPVPELLGGPSVFIFPPKPKDILLISQNAKVTCVVVDVSEEEPDVQFSWFVNNVEVHTAQTQPREEQYNSTFRVVSALPIQHQDWMSGKEFKCKVNNKALPSPIEKTISKPKGLVRKPQVYVMGPPTEQLTEQTVSLTCLTSGFLPNDIGVEWTSNGHIEKNYKNTEPVMDSDGSFFMYSKLNVERSRWDSRAPFVCSVVHEGLHNHHVEKSISRPPGK
light: DVQMTQSPSYLAASPGESVSISCKASKSISNYLAWYQQKPGEANKILIYSGSTLQSGTPSRFSGSGSGTDFSLTIRNLEPEDFAVYYCQQYDEKPLTFGSGTKLEIKRADAAPTVSIFPPSMEQLTSGGATVVCFVNNFYPRDISVKWKIDGSEQRDGVLDSVTDQDSKDSTYSMSSTLSLTKVEYERHNLYTCEVVHKTSSSPVVKSFNRNEC

What was measured:
Nalm6 (CD45-) = assay: Cell viability assay 72 h (PrestoBlue), Nalm6; assay type: cell-based, human; details: drug-linker B1
Method: OCIM1, Jurkat and Nalm6 cells were seeded at 0.5×10^5/mL were cultured for 72 hours in presence of Mab or ADC or medium (in triplicate wells) in wells of flat bottom 96-well plates. 293T cells were seeded at 9.3×10^3 cells per well in flat bottom 96-well plates and allowed to adhere the plate for up to 24 hours. 293T cells were subsequently cultured with Mab or ADC or medium (in triplicate wells) for 72 hours. PrestoBlue® Cell viability Reagent (Thermo Fisher Scientific) was added to each and incubated for up to 1.5 hours. Fluorescence intensity from each well was detected using a FLUOstar OPTIMA microplate reader (BMG Labtech). Data points are mean±s.d. for representative experiments.

[1] = Dosimetry in non-humanised NSG mice; assay type: in vivo; details: non-humanised NSG mice, monitored 2 weeks
Method: For dosimetry in non-humanised NSG mice, adult NSG mice were injected intravenously via the tail vein with unconjugated Mab or ADC up to 5 mg/kg. Mice regularly monitored over a period of 2 weeks for any signs of morbidity. Mice were culled if rapid weight loss (>15%) occurred over a period of 2 days.

[2] = 1 mg/kg, NSG mice; for T %: serum ELISA
Method: Adult (non-humanized) NSG mice were injected with 1 mg/kg ADC. Three mice were used for each ADC. Samples were taken from mice at between 3 h and 168 h after injection. Serum samples were analyzed by ELISA using recombinant human CD45 (Bio-Techne). Goat anti-rat IgG (H+L) (cross absorbed) and sulfoTAG Streptavidin was used to detect the total amounts of the YTH antibodies. Anti-drug antibody was used to detect the level of conjugated antibody.

human CD45+ cells [3] = assay: Depletion of human CD45+ cells in humanised NSG mice; assay type: in vivo
Method: Adult female NSG mice were sublethally irradiated with 2.5 Gy on the day before transplantation (day −57). Cryopreserved purified CD34+ cells from mobilized peripheral blood from a normal donor were thawed and 0.5×10^6 cells in PBS were injected intravenously into the tail vein of mice (day −56). Human engraftment (human CD45+ cells) in the blood of mice was assessed at day −14 and day −1. Mice were assigned to treatment cohorts so that the median human CD45+ engraftment in the blood between the cohorts was as similar as possible. Mice were injected with 0.3 mg/kg or 1 mg/kg Mab or ADC intravenously via the tail vein. Blood samples were taken after 7 days and analysed by flow cytometry. The bone marrow, blood and spleen of mice were analysed at two weeks post-treatment.

[4] = tested on: luciferase expressing human CD45+ Jurkat cells; assay: Jurkat leukaemia model in NSG mice (bioluminescence, survival); assay type: in vivo; details: 1 mg/kg; for mice remained leukaemia free: day 16
Method: Adult NSG mice were sublethally irradiated with 2 Gy on the day before injection of cells. 5×10^6 fire fly luciferase expressing Jurkat cells in PBS were injected intravenously into the tail vein of mice. On the following day PBS, MAbs or ADC were injected intravenously into the tail vein at a dose of 1 mg/kg. Mice were regularly monitored for signs of morbidity and weight loss for the duration of the experiment. For imaging, mice were injected intraperitoneally with 3 mg D-luciferin in PBS. Mice were initially anesthetized with 4% isoflurane and then maintained at 2% isoflurane. Ten minutes after injection of D-luciferin, mice were imaged inside a IVIS Lumina III (PerkinElmer). A sub-saturating image was captured using the auto-exposure setting in the Living Image software.

293T (CD45-) = assay: Cell viability assay 5 days (PrestoBlue), 293T; assay type: cell-based, human; details: rat IgG2b ADC, n=3
Method: OCIM1, Jurkat and Nalm6 cells were seeded at a final concentration of 1.275×10^4/mL and for 5 days in presence of rat IgG2b Mab or ADC or medium (in triplicate) in wells of flat bottom 96-well plates. 293T cells were seeded at 9.3×10^3 cells per 100 uL per well in flat bottom 96-well plates and allowed to adhere the plate for up to 24 hours. 293T cells were subsequently cultured with rat IgG2b Mabs or ADC or medium (in triplicate wells) as described above. PrestoBlue® Cell viability Reagent (Thermo Fisher Scientific) was added to each and incubated for up to 1.5 hours. Fluorescence intensity from each well was detected using a FLUOstar OPTIMA microplate reader (BMG Labtech). Data was plotted using Prism 8.0 and sigmoid dose-response non-linear regression was used to determine EC50 values. Data points are mean±s.d. for representative experiments.

human CD45+ cells [5] = assay: Allogeneic stem cell transplant model in humanized NSG mice, comparison of payloads; assay type: in vivo; details: 1 mg/kg; for mean % hCD45+ engraftment in the bone marrow: 8 weeks after allogeneic GFP+ cells, PBS 14.12%
Method: Adult NSG mice (Charles River Laboratories) were sublethally irradiated with 2.5 Gy in a ^137Cs irradiator. On the following day, mice were injected with 0.5×10^6 freshly thawed cryopreserved human CD34+ cells from a health donor were injected via the tail vein in 150 μL PBS using a 29 gauge MicroFine Plus insulin syringe (BD). Engraftment of human cells in the blood was assessed periodically from 6 weeks after transplantation. At 10 weeks post-transplant, humanized NSG mice were assigned into cohorts with similar median human CD45+ cell engraftment in the blood, as determined by flow cytometry. Mice were injected with PBS or 1 mg/kg YTH24.5-B1. Sixteen 16 days after treatment, mice were transplanted with 0.5×10^6 GFP+CD34+ cells from another healthy donor. Irradiated NSG […] were also transplanted with the GFP+CD34+ from the allogeneic healthy donor as a control for engraftment of the GFP+CD34+ cells. 8 weeks after transplantation of GFP+ cells, mice were culled and blood, spleen and bone marrow taken for analysis by flow cytometry.
Experimental schedule is as previously described in example 16 but with the following modifications. Humanized NSG mice at 10 weeks post-transplant were injected with PBS or 1 mg/kg YTH24.5-B1, YTH54.12-B1, Isotype-B1, YTH24.5-B4 and Isotype-3376. Isotype-B2 and YTH24.5-B2 was given at a dose of 5 mg/kg. Transplantation of 0.5×10^6 GFP+CD34+ from an allogeneic human donor and analysis at 8 weeks post-transplant of GFP+ cells was carried out as previously described.

Row | Molecule | EC50 (Nalm6 (CD45-)) | Comment (survival / culling) ([1]; 0.5 mg/kg i.v.) | Comment (survival / culling) ([1]; 5 mg/kg i.v.) | time after injection by which below the lower limit of detection [2] | T % [2] | Mean % hCD45 levels in blood, 1 week post-treatment (human CD45+ cells [3]; 0.3 mg/kg i.v.) | Mean % hCD45 levels in blood, 2 weeks Post-treatment (human CD45+ cells [3]; 0.3 mg/kg i.v.) | course of the levels of human CD45+ cells in blood (human CD45+ cells [3]; 0.3 mg/kg, two week period) | Mean % hCD45 levels in blood, 1 week post-treatment (human CD45+ cells [3]; 1 mg/kg i.v.) | Mean % hCD45 levels in blood, 2 weeks Post-treatment (human CD45+ cells [3]; 1 mg/kg i.v.) | Mean % hCD45 levels in blood, Pre-treatment (human CD45+ cells [3]; group later dosed 0.3 mg/kg) | Mean % hCD45 levels in blood, Pre-treatment (human CD45+ cells [3]; group later dosed 1 mg/kg) | surviving mice at end of day 70 [4] | mice remained leukaemia free [4] | EC50 (293T (CD45-)) | percentage GFP+ human CD34+ cells in the bone marrow (mean) (human CD45+ cells [5]) | mean % hCD45+ engraftment in the bone marrow (human CD45+ cells [5]) | AUC relative to YTH24.5-PBD [2]
1 | B1 | 2.83 nM | All alive at day 14 | All alive at day 14 | ~4 days | 1.49 days | 5.63% | 1.75% | persistent loss | 1.08% | 0.64% | 8.89% | 6.08% | had surviving mice | 5 of 5 | > 6 nM | 59.13% | 16.45% | –
2 | B2 | 4.23 nM | All alive at day 14 | All alive at day 14 | ~4 days | 1.53 days | 2.99% | 1.31% | – | 0.75% | 0.38% | 5.37% | 6.14% | had surviving mice | 4 of 5 | > 6 nM | 69.40% | 16.34% | ~1.5 times

Reference: patent publication US20220096654A1, “PYRROLOBENZODIAZEPINE-ANTIBODY CONJUGATES AND USES THEREOF” (ADC THERAPEUTICS SA, priority 2020, published 2022)
